Reference: the nanobody polyreactivity screen of Harvey et al. (2022)

Assay: yeast display, Sf9 membrane polyspecificity reagent, FACS + sequencing; frameworks hold sequencing errors
How it was run: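 A nanobody's polyreactivity label depends on the gate it was sorted from. Yeast display cells were stained with 10% biotinylated, detergent-solubilized Sf9 membrane reagent for 1 hour at 4 °C, enriched on streptavidin microbeads and sorted by FACS. The low and high (top ~1%) gates were set on anti-HA fluorescence for expression and streptavidin fluorescence for reagent binding.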

Row | Sequence | polyreactivity (PSR sort gate)
1 | QVQLVESGGGLVQAGGSLRLSCAASGRIFNRNAMGWYRQAPGKERELVATISFNDGSTYYADSVKGRFRISRDIAKNTVYLQMNSLKPEDTAVYYCAKEGYVFEYDYWGKGTQVTVSS | low polyreactivity
2 | QVQLQESGGGLEQAGGSLRLSCAASGYISDIGTMGWYRQAPAKEREFVATIVVGSTTNYADSVKGRFTISRDNAKNTVYLQPESGRYRGVLLSGWLLAVGKFTYWGQGTQETVSS | low polyreactivity
3 | QVQLVESGGGLVQAGGSLRLTCAASGSIFGDYAMGWYRQAPGKEREFVAGITRRGGRTYYADSVKGRFTISRDNAKNTVYLQMNSLKPEDTAVYYCNAVYSSSLRSKYDYWGQGTQVTVSS | high polyreactivity
4 | QVQIVESGGGLVQAGCSLRLSCAASGSTFLSNAMGLYRQAPGKERELVATNSFSRATYADSVKGRFTISRDNAKNTVYLQMNSLKPVDTAVYYCNRATINFSGKGDTAYDYWGQGTQVTVSS | low polyreactivity
5 | QVQLVESGGCLVQAGGSLRLSCAASGYTFYVYAMGWYRQAAGKVRELVSAISGGSNTYYADSVKGRFTISRDNAKNTVYLQMNSLKPEDTALYYCAKSSTTYRQRARYDYWGHGTQVTVSS | high polyreactivity
6 | QVQLVESGGGLVQAGGSLRLSCAASGRTFAYNAMGWYRQAPGKDRELVAAITRRGGSTYYADSVKGRFTISRDNAKNTVYLQMNSLKPEDTAVYDCAKVLGGLPHGEVLDEYDYWGQGTQVTVSS | low polyreactivity
7 | QVQLVESGGGLVQAGGSLRLSCAASGSTLGGYAMGWYRQAPGKERELVAAIRWGGNTYYADSVKGRFTISRDNAKNTVYLQMNSLKPEDTAVYYCAADRWYYFLMYYWGQGTQVTVSS | low polyreactivity
8 | QVQLVESGGGLLQAGGSLRLSCAASGSTFVYYAMGWYRQAPGKERELVAAISRSGGNTYYADSVKGRITISRDNAKNTVYLQRNSLKPEDTAVYYSAARSYGVQYYYWGQGTKVTVSS | high polyreactivity
9 | QVQLVESGAGLVHAGGSLRLCCAASGRIFNGYSMGWYRQAPGKERELVAGISYSGGSTYYADSVKGRFTISRDNAKNTVYLQMNSQKPEETAVYYCAKRPYYLGNRYRFDYWGQGTQVSVSS | high polyreactivity
10 | QVQLVESGGRLVQAGGRLPLSCAASGSIFTGNAMGWYRQAPGKERELVAAITQRGGRTYYADSVKGRFTISRDNSKNTVYLQMNSLKPEDTAVYYCAADPPGYVYGKRYYWGQGTQVTVSS | high polyreactivity
11 | QVQLVESGGGLVQAGGSLRLSCAASGSTFALNAMGWYRQAPGKERELVAAISGRGGSTYYADSVKGRFTISRDNAKNTVYLQMNSLKPEDTAVYYCAATSRVYVRGSYWKYGYWGQGTQVTVSS | high polyreactivity
12 | QVQLVESGGGLVQAGGRLRLSCAASGSTFFAYAMGWYRQAPGKQRELVAAITGRGSTYYADSVKGRFTISRDNAKNTVYLQMNSLKAEDTAVYYCAAQRSRRYYRLDFWGQGTQVTVSS | high polyreactivity
13 | QVQLVESGGGLVQAGGSLRLSCAASGRIFYTNGMAWYRQAPGKERELVATIRSGDGRTYYADSVKGRFTISRDNAKNTVYLQMNSLKPEDTAVYYCNASRVVYRQAYLYGFDYWGQGTQVTVSS | low polyreactivity
14 | QVQLVESGGGLVQAGGSLRLSCAASGYTFPVYAKGWYRQASRKERELVATSTSGGSTNYADSVKGRFTISRDNAKNTVYFQMNSLKPEDTAVYYCAADRALSISLYPIASFYYWGQGTQVTVSS | low polyreactivity
15 | QVHLVESGRGLFQAGGSLRLSCAASGSIFGYNAMGWYRQAPGKERELVAAITWRGGSTYYADSVKGRFTISRDNAKNTVYLQMNSLKPEDTAVYDCAAYVYQEYDYWGQGTQVTVSS | high polyreactivity
16 | QVQLVESGGGLVQAGGSLRLSCAASGGTIAPYAMGWYRQAPGKERELVATISYSGTSTNYADSVKGRFTISRDNAKNTVYLQMNSLKPEDTAVYYCAKRYHQYRWRGWLWGFDYWGQGTQVTVSS | high polyreactivity

Row | Sequence | polyreactivity (PSR sort gate)
17 | QVQLVESGGGLVQAGGSLRLSCAASVGTFRRYAKGWYREAPGKERELVAAISWTGGSTYYADSVKGRFTISRDNAKNNVYLQMNSLKPEDTAVYYCAAVGSSSSKGGYWGQGTQVTVSS | high polyreactivity
18 | QVQLVESGGGLVQAGGSLRLSCAASGSIFDGYAMGWNSQAPGKERELVAAISQRGGSTYYADSVKGRFTISRDNAKNTVYLQINSLKPEETAVYYCAADSSYGTRDYWGQGTQVTVSS | low polyreactivity
19 | QVQLVESGGGLVQAGGSLRLSCAASGSTFGWYTMGWYRQAPGKERELVAAITSRGTRTSYADSVKGRFTISRDNAKNTVYLQMNSLKPEDTAVYYCAARVFRGLGEYYWGQGTQVTVSS | high polyreactivity
20 | QVQLVESGGGLVQAGGSLRLSCAASGSTFSLYAMGWYRQAPGKERELVADINSGGGTYYADSVKGRFTISRDNAKNTVYLQMNSLKPEDTAVYYCTAASSWSYFWYDYWGQGTQVTVSS | high polyreactivity
21 | QVQLVESGGGLVQAGGSLRLSCAASGSTFDRNVMGWYRQAPGKERELVAAISRVSSTNYSDSVKGRFTISRDNAKNTVYLQMNSLKPEDTAVYYCAADRAGSIMNYWGQGTQVTVSS | low polyreactivity
22 | QVQLVESGGGLVQAGGSLRLSCAASGFIFFTYAMGWYRQAPGKERELVADISSRGGSTYYADSVKGRFTISRDNAKNTVYLQMNSLKPEDTAVYYCARTRFWLRYRLFDYWGQGTQVTVSS | low polyreactivity
23 | QVQLVESGGGLVQAGGSLRLSSAASGFTFSHYAMGWYRQAPGKERELVAAITWSGGSTYYADSVKGRFTISRDNAKNTVYLQINSLKPEDTAVYYCAAESYLDGGEYWGQGTQVTVSS | high polyreactivity
24 | QVQLVETGGGIVQAGGSLRLSCAASGITFQSNTMGWYRQSPGKERELVAAITWTGGRTYYADSVKGRFTISRDNAKNTVYLQMNSLTPEDTAVYYCNADGYAICYNGKLDYWGQGTQVTVSS | high polyreactivity
25 | QVQLVESGGGLVQAGGSLRLSCAASGSIFVKYAMGWYRQAPGKERELVAAITTGVGSTYYADSVKGRFTISRDNAKNTVYLQMNSLKPEDTAVYYCAAETIDYWYILEYDYWGQGTQVTVSS | low polyreactivity
26 | QVQLVESGGGIVQAGGSLRLSCAASGFIFDSYAMGWYRQAPGKERELVAAITTSGGRTYYADSVKGRFTISRDNAKNTVYLQMNSLKPEDTAVYYCAAKYTARWGFDYWGQGTQVTVSS | high polyreactivity
27 | QVQLVESAGCLVQAGGSLRLSCAASGRTFAVYAMGWSRPAPGKQREMVAAITLGASRSYYADSVKGRFTISRDNAKNTVYLQMNRLKPEDSAVYYWNDVGRLNVDSYLNDYWGKGTQVTVSS | low polyreactivity
28 | QVQLVESGGGLVQAGGSLRLSCAASGSTSVTNAMGWYRQAPGKEREFVATINYSGTSTYYADSVKGRFTISRDNAKNTVYLQMNSLKPEDTAVYYCNAHDFGFYRFSLPGYDYWGQGTQVTVSS | low polyreactivity
29 | QVHLVESGGGLVQAGGSLLLSCAASGFTFRTNAMGWNRQAPGKERELVAVISRRGGSTYYADSVKGRFTISRDNAKNTVYIQMNSLKPEDTAVYYCNAGDGTVGRTYYRSYDYWGQGTQVTVSS | high polyreactivity
30 | QVQLVQSGGGLVQAGGSLRLSCAASGSTFARNAMGWYRQAPGKERELVAAISSSGGRTYYADSVKGRFTISRDHAKNSVYLQMNSLKPEYTEVYYCAAAFSLGMYWGQGTQGTVSS | high polyreactivity
31 | QVQLVESGGGLVQAGGSLRLSCAASGRIFWGYDMGWYRQAPGKERELVAAINWSGGITNYADSVKGRFTISRDNAKNTVYLQMNSLKPEDTAVYYCAADTYWHRYYWGQGTQVTVSS | high polyreactivity
32 | QVQLVESGGGLVQAGGSLRLSCAASGSTFQSNAMGWYRQAPGKERELVASITDSGGRTYYADSVKGRFTSSRDNAKNTVYLQMNSLKPEDTAVYYCAAVSLWWSDYYFVEYDYWGQGTQVTVSS | high polyreactivity
